Results as given in paper PMC5404824, “Engineering Nucleotide Specificity of Succinyl-CoA Synthetase in Blastocystis: The Emerging Role of Gatekeeper Residues” (Biochemistry, 2016).

Substrate: Nc1ncnc2c1ncn2[C@@H]1O[C@H](COP(=O)(O)OP(=O)(O)OP(=O)(O)O)[C@@H](O)[C@H]1O
Experiment: purified protein
Conditions: 129 μM CoA, 10 mM succinate, 50 mM KCl, 10 mM MgCl2, 50 mM Tris-HCl pH 7.4, 30 nM enzyme

B1: Blastocystis SCS (succinyl-CoA synthetase, SCSα + SCSβ) (Blastocystis sp. ATCC 50177/Nand II) (protein)
chain: LNIHEWQSKQLIQKYGGRAQSGEVAFSPERSRDIAKKLWNQFPGCKFVVKAQVLAGGRGKGHWEHGMQGGVKLAKTPEEVYEIANEMIGHKLITKQTGAKGINCNKVMVCGAVKILKEFYLSILLDRAMGCPVIIATSQGGMGIEEVAQKCPECLFKVPISVKNGPTNEQLVKLAKDLGLEGDLVQDCVDNVKALYQVFDKCDSTMVEINPLGVIETPTDEKVICCLDAKIAFDKDAAFRQKEIFALRDKSREDPRDVRASLADLNYVGLDGDIGCMVNGAGLAMATMDTINYFGGSAANFLDVGGNAKKEQITEALRILNSDKHVKSILINIFGGIMRCDVVAQGIMDAVREMKLDLPLVVRLEGTNVAKGKEILKSSGLNIIPANDLGDAAKKAVASLKH
Km: 145 ± 47 µM | kcat: 0.0139 s⁻¹ | kcat/Km: 96 M⁻¹ s⁻¹
